Columns and labels:
[1] = test system: anti-glycocalicin antibodies; settings: competitive ELISA, literature; cited from earlier work
[2] = target: T1, binding of von Willebrand factor and chimeric protein (glycoprotein Ib) (Homo sapiens, UniProt P04275+P07359); test: Detection of glycocalicin in plasma by ELISA using anti-mouse IgG-Fc antibodies; set-up: made in house; host or cells: CHOdhfr- cells transfected with pSDGPIbIgG1Fc; unpurified serum-free culture supernatant; settings: diluted human plasma, based on reported blood concentration about 2 μg/ml
Method: Immobilization of a mixed solution of von Willebrand factor and botrocetin on a 96-well multititer plate was attained as follows. First, a physiological saline solution of von Willebrand factor (250 μg/ml) and a physiological saline solution of botrocetin (500 μg/ml), which were prepared in a conventional manner, were appropriately diluted, and mixed at the concentration ratios shown in FIG. 2. Then, 50 μl of each mixture was added to each well of a 96-well multititer plate (Maxisorp, produced by Nunc). […]
Each well was washed 5 times with TBS (150 μl) containing 0.05% Tween-20, and added with 100 μl of 100 mM NaHCO3 solution containing 10 mM MgCl2, in which p-nitrophenylphosphate was dissolved at 1 mg/ml, to carry out the color development reaction for about 1 hour. After the color development, absorbance at 405 nm was measured.
The detection was carried out in the same manner as that of Example 4 <1> except that von Willebrand factor was immobilized by using a mixed solution (TBS) containing 2.5 μg/ml of von Willebrand factor and 2.5 μg/ml of botrocetin, and a binding inhibition substance of which inhibitory activity was desired to be measured was added to the reaction of the immobilized von Willebrand factor and the culture supernatant of the chimeric protein producing cells. […]

[3] = target: T1, binding of von Willebrand factor and chimeric protein (glycoprotein Ib); test: Detection of glycocalicin in plasma using chimeric protein labeled with europium (Eu); set-up: made in house; host or cells: CHOK1 cells transfected with pMikGPIbFc; purified on a Protein A column and labelled with europium; settings: diluted human plasma, based on reported blood concentration about 2 μg/ml
Method: The detection was carried out in the same manner as that of Example 4 <2> except that svon Willebrand factor was immobilized by using a mixed solution (TBS) containing 2.5 μg/ml of von Willebrand factor and 2.5 μg/ml of botrocetin, and a binding inhibition substance of which inhibitory activity was desired to be measured was added to the reaction of the immobilized von Willebrand factor and the chimeric protein labeled with europium (Eu).
Each human plasma independently prepared in the same manner as the above <1> were successively diluted 2-fold with TBS (8 times of dilution in total), and 25 μl each of the diluted plasma was added to each well of a von Willebrand factor immobilized plate prepared in the same manner as in Example 5 <1> (microtitration plate DELFIA, 1244-550, produced by Pharmacia Biotech, was used as the base plate). Further, 25 μl a solution of the chimeric protein labeled with europium (Eu) in assay buffer prepared in the same manner as in Example 4 <1> (100 ng/ml, Assay Buffer; 1244-106, produced by Pharmacia Biotech) was added to each well of the plate for reaction. The subsequent washing and measurement were performed in the same manner as in Example 5 <2>, and the average values of the results are shown in FIG. 7.

Substance: glycocalicin: enzymatically cleaved extracellular portion of platelet membrane glycoprotein Ibα chain, about 135 kDa
- IC50 value of the glycocalicin concentration showing competitive inhibition [1]: about 4 μg/ml
- Glycocalicin concentration showing 50% binding inhibition [2]: about 400 ng/ml
- Glycocalicin concentration showing 50% binding inhibition [3]: about 60 ng/ml
